Several values for one entry are separate records, joined by “and”; a condition that tells them apart may be missing. Equal entries are not always repeated.
What was measured:
I-II loop of α1B (I-IIB) = target: T1, I-II loop of α1B (I-IIB) (Homo sapiens, UniProt Q00975); assay: Yeast two-hybrid assay, NT peptides versus I-IIB; type: binding; conditions: NT segment in pGBKT7, I-IIB in pGADT7
T1 construct: I-IIB(357-482)-pGADT7 & lam-pGBKT7; expressed in transfected cells; host or cells: AH109 yeast
Description: (§1) For yeast two-hybrid assays, a PCR fragment encoding one partner was fused, in-frame, with the GAL4 DNA binding domain (BD) in pGBKT7 (Clontech, Palo Alto, Calif.). The other element was fused, in-frame, with the GAL4 activation domain (AD) in pGADT7. For specific residues, see Supplemental Data (section 2). For electrophysiology, NT peptides lacking fluorophore tag were PCR amplified and cloned in pcDNA3. NTB peptide residues, 1-95; NTC residues, […]. Throughout, all segments subject to PCR or QuikChange were verified in their entirety by sequencing.
(§2) The Matchmaker GAL4 Two-Hybrid System 3 was used (Clontech, Palo Alto, Calif.). AH109 yeast were transformed with pGBKT7/pGADT7-based constructs (Yeastmaker Yeast Transformation System 2 kit, Clontech). After 5-8 days, growth on -leucine/-trytophan plates confirmed transformation of both plasmids. If partners interact, GAL4 BD/AD would complex, activating reporter genes (HIS3, ADE2, lacZ, and MEL1), for which assays are detailed in the Supplemental Data (section 2.1).
(§3) As a ‘medium’ stringency assay, expression of the lacZ gene was tested for encoding β-galactosidase, performing a filter lift with application of blue chromogenic substrate (Clontech-Laboratories, 1999). After the filter lift, original plates were re-grown for 2-3 days at 30° C. Filter paper was then used to replicate colonies onto a high stringency plate (-adenine/-histidine/-leucine/-trytophan). These plates were then incubated at 30° C. for 5-8 days. Survival on high stringency plates indicates production of both adenine and histidine, from transcription of the ADE2 and HIS3 genes, respectively. The percentage of colonies that turned blue in the filter lift assay, along with the percentage of colonies that survived on high stringency plates, was recorded for each pairing. Experiments were repeated at least three times. False positives were controlled for by testing each segment in pGBKT7 against empty pGADT7, and each segment in pGADT7 against lamin C in pGBKT7 (lamin C interacts with few proteins). Average sum of these backgrounds was subtracted from B to produce the net interaction parameter ΔB (FIG. 2).

Gβ1 = target: T2, Gβ1 (Bos taurus, UniProt P62871); assay: Yeast two-hybrid assay, channel fragments versus Gβ1; type: binding; conditions: Gβ1 in pGADT7, channel fragment in pGBKT7
T2 construct: expressed in transfected cells; host or cells: AH109 yeast
Description: as §1, §2
as §3, with “Average sum of these backgrounds was subtracted from B to produce the net interaction parameter ΔB (FIG. 2).” left out

[1] = target: T3, N-type (α1B) Ca2+ channels (Homo sapiens, UniProt Q00975); assay: Whole-cell G/Q analysis and prepulse facilitation of recombinant N-type channels coexpressed with peptide in HEK293 cells; type: cell-based; conditions: for Effect on G/Q slope (Gmax-Qmax relation), with Gβγ: peptide coexpressed with channels and Gβγ, Gmax after 100 mV prepulse
T3 construct: transferred by EcoRI and Bgl II sites into the full-length α1B construct; expressed in transfected cells; host or cells: HEK293
Description: FIG. 3A illustrates an approach for N-type channels without Gβγ coexpression. Exemplar currents activated quickly and were barely facilitated by strong prepulse depolarization (FIG. 3A, left). The slight residual prepulse facilitation reflects basal endogenous Gβγ activation. To estimate open probability, two intermediary parameters were specified. First, to gauge the number of channels in a cell (Nchannel), the channel gating current at the reversal potential for ionic current were isolated (FIG. 3A, middle left) (Jones et al., 1999). The area under this current yields the maximal gating charge Qmax, where Qmax=Nchannel×qmax, and qmax is the maximal gating charge per channel. Second, Gmax for a given cell, the maximal ionic current conductance determined as the slope of the peak current-voltage relation at depolarized potentials were determined (FIG. 3A, middle right, line). Here and throughout, current-voltage relations were determined after a 100 mV prepulse, which transiently relieves all G protein inhibition (Colecraft et al., 2000), thus eliminating these inhibitory effects in the estimate of Gmax. Accordingly, Gmax=Nchannel×Po,max×g, where Po,max is the maximal channel open probability at saturating de-polarization, and g is the conductance of a single open channel. In combination, then, a plot of Gmax versus Qmax for multiple cells ([…]) would describe a linear relation with slope equal to Po,max×g/qmax. Because g and qmax are unchanged by G protein modulation (Colecraft et al., 2001; Jones et al., 1997; Patil et al., 1996), this slope (G/Q=0.44±0.03 nS/fC) is proportional to Po,max . . . FIG. 3B documents the supporting results for N-type channels coexpressed with Gβγ. Gmax determined after prepulse de-polarization, when plotted against Qmax, specifies an identical slope to that without Gβγ (FIG. 3B, right, G/Q=0.43±0.04 nS/fC). […] Free NTB peptide with α1B channels. Initially, an NTB-CFP peptide was employed to visually confirm expression was coexpressed. […] By contrast, coexpressing channels with NTB-CFP and Gβγ produced remarkable effects (FIG. 3D). […] More telling were small ionic current amplitudes despite gating current magnitudes on par with controls (FIG. 3D, middle panels). Consequently, there was a significant ^w6-fold depression of the Gmax-Qmax plot (FIG. 3D, right). If NTB-CFP were simply chelating Gβγ (FIG. 2C), the G/Q slope would be unchanged from control. Instead, the suppression of G/Q indicates constitutive inhibition of channel opening.
Cells were transiently transfected and cultured in 10 cm plates (Brody et al., 1997). For 2+Ca^2+ channels, 8 μg was used of each of cDNAs of the desired a1, rat brain β2a (Perez-Reyes et al., 1992), and rat brain a^28 (Tomlinson et al., 1993) subunits; along with 2 μg T-antigen cDNA. N-type α1B, human origin (NM000718); L-type α1C, rabbit (Wei et al., 1991) (X15539). Gβγ coexpressed with 4 μg each of Gβ1 (Sugimoto et al., 1985) and Gγ2 (Gautam et al., 1990). For coexpression of N-terminal peptides, channel subunit cDNA reduced to 6 μg, while adding 14 μg peptide cDNA. For receptor experiments, 0.5 μg cDNA for m2R (below) applied with other cDNAs.
Whole-cell current records were made with Axopatch 200B (Axon Instruments, Calif.), 1-3 days posttransfection. Pipets, 1.5-3 MΩ before 60-75% series resistance compensation. Internal solution: 135 mM CsMeSO4, 5 mM CsCl, 10 mM EGTA, 10 mM HEPES, 1 mM MgCl2, and 4 mM MgATP. External solution: 150 mM TEAMeSO4, 10 mM HEPES, 2 mM CaCl2, and 1 mM MgCl2. During constitutive inhibition (or as noted for some chimeras), 20 mM BaCl2 was substituted for 2 mM CaCl2, and the resulting solution was diluted 1.08×. To compare across external solutions, a conversion factor of 3.18 was used. Currents and conductances with 20 mM Ba^2+ were thus scaled×1/3.18 to facilitate uniform comparison of values, as if all data had been collected with 2 mM Ca^2+. When applied, conversion is denoted by asterisk (*). […]

T3 sequence (Q00975 whole entry, other chains not shown): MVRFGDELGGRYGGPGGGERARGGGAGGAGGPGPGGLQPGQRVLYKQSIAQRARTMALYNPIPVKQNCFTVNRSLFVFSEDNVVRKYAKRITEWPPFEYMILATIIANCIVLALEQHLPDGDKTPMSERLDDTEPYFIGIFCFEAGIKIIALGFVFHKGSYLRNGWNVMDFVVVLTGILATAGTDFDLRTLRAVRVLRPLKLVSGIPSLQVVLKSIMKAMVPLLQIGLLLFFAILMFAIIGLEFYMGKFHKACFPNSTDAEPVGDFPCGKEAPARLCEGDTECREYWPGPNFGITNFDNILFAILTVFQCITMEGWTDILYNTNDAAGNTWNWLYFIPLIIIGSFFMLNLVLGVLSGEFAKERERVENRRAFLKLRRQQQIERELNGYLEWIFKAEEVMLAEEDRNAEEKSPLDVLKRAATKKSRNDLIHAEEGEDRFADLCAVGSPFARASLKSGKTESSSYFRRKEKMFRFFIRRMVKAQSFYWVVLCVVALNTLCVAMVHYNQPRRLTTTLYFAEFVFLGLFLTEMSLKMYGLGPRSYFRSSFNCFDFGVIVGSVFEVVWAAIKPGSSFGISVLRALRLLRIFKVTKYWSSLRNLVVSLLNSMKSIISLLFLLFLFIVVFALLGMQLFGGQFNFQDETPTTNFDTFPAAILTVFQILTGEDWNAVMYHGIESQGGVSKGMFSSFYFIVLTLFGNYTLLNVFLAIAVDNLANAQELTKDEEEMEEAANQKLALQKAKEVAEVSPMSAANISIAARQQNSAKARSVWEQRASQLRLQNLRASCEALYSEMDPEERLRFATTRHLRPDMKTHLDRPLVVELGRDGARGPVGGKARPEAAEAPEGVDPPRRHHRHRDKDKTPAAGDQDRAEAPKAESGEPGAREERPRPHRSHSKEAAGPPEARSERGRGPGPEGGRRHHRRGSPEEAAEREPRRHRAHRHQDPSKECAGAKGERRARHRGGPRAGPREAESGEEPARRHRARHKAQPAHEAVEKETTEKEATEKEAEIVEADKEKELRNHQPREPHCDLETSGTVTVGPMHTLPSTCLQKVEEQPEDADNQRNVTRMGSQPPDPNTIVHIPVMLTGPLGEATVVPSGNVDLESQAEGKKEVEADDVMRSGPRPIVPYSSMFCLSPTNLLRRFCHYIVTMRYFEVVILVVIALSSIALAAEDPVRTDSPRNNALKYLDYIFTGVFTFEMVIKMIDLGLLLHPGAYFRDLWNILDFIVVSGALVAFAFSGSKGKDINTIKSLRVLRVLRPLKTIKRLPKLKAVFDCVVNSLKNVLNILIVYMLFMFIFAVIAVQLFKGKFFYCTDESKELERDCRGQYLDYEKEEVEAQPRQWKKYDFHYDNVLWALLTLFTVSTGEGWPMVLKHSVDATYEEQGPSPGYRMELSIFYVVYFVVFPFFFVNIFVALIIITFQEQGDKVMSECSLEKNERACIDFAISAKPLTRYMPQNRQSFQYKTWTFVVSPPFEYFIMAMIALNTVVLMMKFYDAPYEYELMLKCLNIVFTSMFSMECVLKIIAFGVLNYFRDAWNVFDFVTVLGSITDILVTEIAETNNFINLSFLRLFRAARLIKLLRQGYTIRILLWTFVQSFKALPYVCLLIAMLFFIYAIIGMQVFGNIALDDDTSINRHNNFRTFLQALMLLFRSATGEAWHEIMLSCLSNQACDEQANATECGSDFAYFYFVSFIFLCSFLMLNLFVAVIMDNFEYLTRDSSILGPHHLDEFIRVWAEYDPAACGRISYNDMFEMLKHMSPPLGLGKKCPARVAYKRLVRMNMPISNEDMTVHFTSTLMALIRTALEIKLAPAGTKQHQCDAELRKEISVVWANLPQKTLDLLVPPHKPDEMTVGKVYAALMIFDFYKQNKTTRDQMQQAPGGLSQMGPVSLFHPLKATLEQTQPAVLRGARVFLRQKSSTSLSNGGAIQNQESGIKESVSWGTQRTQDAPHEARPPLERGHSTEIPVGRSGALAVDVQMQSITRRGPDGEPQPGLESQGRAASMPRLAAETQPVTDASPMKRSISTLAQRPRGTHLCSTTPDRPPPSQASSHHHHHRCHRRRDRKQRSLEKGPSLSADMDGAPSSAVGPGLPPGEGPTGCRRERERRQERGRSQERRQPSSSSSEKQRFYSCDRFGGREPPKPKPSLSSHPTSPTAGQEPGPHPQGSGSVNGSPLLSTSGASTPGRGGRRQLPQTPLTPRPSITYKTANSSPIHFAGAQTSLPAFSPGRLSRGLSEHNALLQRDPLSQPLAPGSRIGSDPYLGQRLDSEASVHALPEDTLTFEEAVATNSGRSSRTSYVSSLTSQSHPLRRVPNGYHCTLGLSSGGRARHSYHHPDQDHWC
T3 sequence (P54290 25-944 partner limits assumed, other chains not shown): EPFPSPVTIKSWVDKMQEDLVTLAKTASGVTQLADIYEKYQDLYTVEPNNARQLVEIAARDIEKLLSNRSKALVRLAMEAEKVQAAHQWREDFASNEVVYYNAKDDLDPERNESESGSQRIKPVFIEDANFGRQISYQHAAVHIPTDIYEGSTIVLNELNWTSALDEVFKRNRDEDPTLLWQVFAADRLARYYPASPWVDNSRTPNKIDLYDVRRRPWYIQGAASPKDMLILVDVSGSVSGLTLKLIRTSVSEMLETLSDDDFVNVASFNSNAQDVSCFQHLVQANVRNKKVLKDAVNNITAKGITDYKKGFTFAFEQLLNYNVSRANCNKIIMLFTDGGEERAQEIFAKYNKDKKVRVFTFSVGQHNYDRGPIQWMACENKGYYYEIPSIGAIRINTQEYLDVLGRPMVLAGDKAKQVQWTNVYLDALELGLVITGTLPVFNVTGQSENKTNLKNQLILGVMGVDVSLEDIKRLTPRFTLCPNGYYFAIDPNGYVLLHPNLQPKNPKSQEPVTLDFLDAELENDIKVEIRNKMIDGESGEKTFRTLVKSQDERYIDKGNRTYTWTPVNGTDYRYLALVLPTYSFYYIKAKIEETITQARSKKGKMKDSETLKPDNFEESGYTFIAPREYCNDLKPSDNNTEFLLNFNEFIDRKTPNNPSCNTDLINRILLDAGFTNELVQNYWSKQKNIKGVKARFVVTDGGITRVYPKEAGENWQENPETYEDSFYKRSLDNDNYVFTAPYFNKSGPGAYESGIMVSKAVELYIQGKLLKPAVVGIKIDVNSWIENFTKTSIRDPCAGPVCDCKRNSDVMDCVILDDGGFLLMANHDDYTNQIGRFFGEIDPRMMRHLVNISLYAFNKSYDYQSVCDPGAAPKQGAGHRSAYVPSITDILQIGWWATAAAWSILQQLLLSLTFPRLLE
T3 sequence (P54290 945-1091 partner limits assumed, other chains not shown): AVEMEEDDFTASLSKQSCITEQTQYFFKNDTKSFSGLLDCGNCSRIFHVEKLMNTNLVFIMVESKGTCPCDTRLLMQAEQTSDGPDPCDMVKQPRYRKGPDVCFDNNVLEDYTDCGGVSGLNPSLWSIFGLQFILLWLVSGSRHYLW
T1 sequence (Q00975 357-482): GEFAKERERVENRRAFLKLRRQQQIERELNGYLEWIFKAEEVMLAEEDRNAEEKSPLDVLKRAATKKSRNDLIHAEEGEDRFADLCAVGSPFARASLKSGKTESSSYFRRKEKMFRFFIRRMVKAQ
T2 sequence (P62871 whole entry, the tested form may be a part): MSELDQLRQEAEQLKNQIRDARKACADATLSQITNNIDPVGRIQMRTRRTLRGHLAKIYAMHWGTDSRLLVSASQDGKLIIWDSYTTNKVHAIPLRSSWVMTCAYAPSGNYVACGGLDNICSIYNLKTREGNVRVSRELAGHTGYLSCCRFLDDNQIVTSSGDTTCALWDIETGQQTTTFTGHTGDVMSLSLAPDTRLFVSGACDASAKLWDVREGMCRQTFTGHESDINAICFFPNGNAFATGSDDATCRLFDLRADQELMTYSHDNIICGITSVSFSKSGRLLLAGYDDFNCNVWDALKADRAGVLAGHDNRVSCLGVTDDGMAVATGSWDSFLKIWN

Molecule: NTC: NH3 terminus of L-type channel α1C subunit, free peptide [reference compound]
- Interaction with I-IIB (yeast two-hybrid, ΔB) (I-II loop of α1B (I-IIB)): failed to reveal an association
- Interaction with Gβ1 (yeast two-hybrid) (Gβ1): interact
- Effect on G/Q slope (Gmax-Qmax relation), with Gβγ [1]: had no effect
- Effect on G/Q slope and currents, without Gβγ ([1]; peptide coexpressed with channels, absent Gβγ): had no effect

B1: NTB: NH3 terminus of N-type channel α1B subunit, residues 1-95, expressed as free peptide (SEQ ID NO.: 1) (protein, listed as Homo sapiens)
chain: MVRFGDELGGRYGGPGGGERARGGGAGGAGGPGPGGLQPGQRVLYKQSIAQRARTMALYNPIPVKQNCFTVNRSLFVFSEDNVVRKYAKRITEWP
- Interaction with I-IIB (yeast two-hybrid, ΔB) (I-II loop of α1B (I-IIB)): positive
- Interaction with Gβ1 (yeast two-hybrid) (Gβ1): interact
- DF (prepulse facilitation) [1]: 2.64±0.18
- Induction time of constitutive inhibition after receptor activation [1]: 10 to 15 min and ~10 min
- Reversal of constitutive inhibition on removal of carbachol [1]: did not reverse inhibition
- Functional profile with m2R, absent carbachol ([1]; channels + m2R + NTB peptide, 0 min CCH): indistinguishable from control N-type channels
- G/Q slope with m2R and carbachol ([1]; channels + m2R + free NTB peptide, carbachol ≧30 min (50 μM CCH)): marked suppression of the G/Q slope
- Conversion to constitutively reluctant channels ([1]; deduced from DF˜4 via FIG. 7B model, free NTB with Gβγ): ~75%
- DF (degree of prepulse facilitation) ([1]; free NTB with Gβγ): ~4
- Effect on G/Q slope (Gmax-Qmax relation), with Gβγ [1]: identical to those obtained with NTB-CFP

Source: patent US7985736B2, “High throughput screen utilizing newly discovered intramolecular neuronal calcium channel interactions to discover new analgesics” (The John Hopkins University, priority 2004, dated 2011)
